In paper PMC10786891, “Massively parallel profiling of RNA-targeting CRISPR-Cas13d” one finds Kd data, which are given here for 27 molecules.

The chains are these.
T1: EsCas13d, nuclease-dead (Eubacterium siraeum, UniProt B0MS50, R295A;H300A;R849A;H854A)
T1 sequence: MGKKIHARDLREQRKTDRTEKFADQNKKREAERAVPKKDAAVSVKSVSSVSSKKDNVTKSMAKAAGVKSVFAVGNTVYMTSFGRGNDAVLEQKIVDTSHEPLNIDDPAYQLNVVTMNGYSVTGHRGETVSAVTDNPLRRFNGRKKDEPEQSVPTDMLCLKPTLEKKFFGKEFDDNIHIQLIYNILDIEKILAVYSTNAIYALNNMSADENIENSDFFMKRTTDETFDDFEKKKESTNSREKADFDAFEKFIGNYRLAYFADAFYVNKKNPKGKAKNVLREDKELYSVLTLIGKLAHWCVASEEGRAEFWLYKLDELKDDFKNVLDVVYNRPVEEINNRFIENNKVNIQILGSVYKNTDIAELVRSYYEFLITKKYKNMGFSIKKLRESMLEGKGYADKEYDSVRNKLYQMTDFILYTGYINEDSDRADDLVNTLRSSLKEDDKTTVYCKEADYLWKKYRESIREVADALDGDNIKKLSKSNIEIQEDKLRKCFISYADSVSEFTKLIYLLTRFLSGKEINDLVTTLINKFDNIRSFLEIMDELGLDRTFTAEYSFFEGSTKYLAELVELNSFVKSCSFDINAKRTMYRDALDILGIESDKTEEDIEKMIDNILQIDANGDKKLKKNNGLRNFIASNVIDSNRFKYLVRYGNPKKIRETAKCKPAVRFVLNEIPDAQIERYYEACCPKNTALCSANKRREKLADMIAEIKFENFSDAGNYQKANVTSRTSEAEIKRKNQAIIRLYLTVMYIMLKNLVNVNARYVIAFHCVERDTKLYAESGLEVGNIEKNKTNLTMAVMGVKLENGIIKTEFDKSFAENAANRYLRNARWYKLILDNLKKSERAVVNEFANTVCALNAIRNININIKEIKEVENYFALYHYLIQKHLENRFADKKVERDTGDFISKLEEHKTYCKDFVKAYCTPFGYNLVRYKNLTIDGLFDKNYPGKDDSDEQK

B1: target 1 insG 3' of 18,insG 3' of 4 (mixed)
RNA 1: CACCCGUGCAAAAAUGCAGGGGUCUAAAACUGAGCGGAUAACCUCUCUAUGG
RNA 2: GGGAAUGGAUCCACAUCUACGAAUUCGUACCAUAGGAGAGGUUAUCCGCGUCACCGAGAUCGGAAGAGCACACGU
B2: target 1 insC 3' of 20,insA 3' of 7 (mixed)
RNA 1: CACCCGUGCAAAAAUGCAGGGGUCUAAAACUGAGCGGAUAACCUCUCUAUGG
RNA 2: GGGAAUGGAUCCACAUCUACGAAUUCGUACCACUAGAGAGGUUAUCACGCUCACCGAGAUCGGAAGAGCACACGU
B3: target 1 insC 3' of 9,insG 3' of 9 (mixed)
RNA 1: CACCCGUGCAAAAAUGCAGGGGUCUAAAACUGAGCGGAUAACCUCUCUAUGG
RNA 2: GGGAAUGGAUCCACAUCUACGAAUUCGUACCAUAGAGAGGUUACGUCCGCUCACCGAGAUCGGAAGAGCACACGU
B4: target 1 insU 3' of 13,insG 3' of 10 (mixed)
RNA 1: CACCCGUGCAAAAAUGCAGGGGUCUAAAACUGAGCGGAUAACCUCUCUAUGG
RNA 2: GGGAAUGGAUCCACAUCUACGAAUUCGUACCAUAGAGAGUGUUGAUCCGCUCACCGAGAUCGGAAGAGCACACGU
B5: target 1 C4G,U8A (mixed)
RNA 1: CACCCGUGCAAAAAUGCAGGGGUCUAAAACUGAGCGGAUAACCUCUCUAUGG
RNA 2: GGGAAUGGAUCCACAUCUACGAAUUCGUACCAUAGAGAGGUUAACCGGUCACCGAGAUCGGAAGAGCACACGU
B6: target 1 C7G,A16U (mixed)
RNA 1: CACCCGUGCAAAAAUGCAGGGGUCUAAAACUGAGCGGAUAACCUCUCUAUGG
RNA 2: GGGAAUGGAUCCACAUCUACGAAUUCGUACCAUAGUGAGGUUAUGCGCUCACCGAGAUCGGAAGAGCACACGU
B7: target 1 C6U,U10C (mixed)
RNA 1: CACCCGUGCAAAAAUGCAGGGGUCUAAAACUGAGCGGAUAACCUCUCUAUGG
RNA 2: GGGAAUGGAUCCACAUCUACGAAUUCGUACCAUAGAGAGGUCAUCUGCUCACCGAGAUCGGAAGAGCACACGU
B8: target 1 A9G,G13U (mixed)
RNA 1: CACCCGUGCAAAAAUGCAGGGGUCUAAAACUGAGCGGAUAACCUCUCUAUGG
RNA 2: GGGAAUGGAUCCACAUCUACGAAUUCGUACCAUAGAGAUGUUGUCCGCUCACCGAGAUCGGAAGAGCACACGU
B9: target 1 A1G,C21A (mixed)
RNA 1: CACCCGUGCAAAAAUGCAGGGGUCUAAAACUGAGCGGAUAACCUCUCUAUGG
RNA 2: GGGAAUGGAUCCACAUCUACGAAUUCGUACAAUAGAGAGGUUAUCCGCUCGCCGAGAUCGGAAGAGCACACGU
B10: target 1 A1U,C21A (mixed)
RNA 1: CACCCGUGCAAAAAUGCAGGGGUCUAAAACUGAGCGGAUAACCUCUCUAUGG
RNA 2: GGGAAUGGAUCCACAUCUACGAAUUCGUACAAUAGAGAGGUUAUCCGCUCUCCGAGAUCGGAAGAGCACACGU
B11: target 1 insC 3' of 16,insG 3' of 6 (mixed)
RNA 1: CACCCGUGCAAAAAUGCAGGGGUCUAAAACUGAGCGGAUAACCUCUCUAUGG
RNA 2: GGGAAUGGAUCCACAUCUACGAAUUCGUACCAUAGACGAGGUUAUCCGGCUCACCGAGAUCGGAAGAGCACACGU
B12: target 1 U3C,U8A (mixed)
RNA 1: CACCCGUGCAAAAAUGCAGGGGUCUAAAACUGAGCGGAUAACCUCUCUAUGG
RNA 2: GGGAAUGGAUCCACAUCUACGAAUUCGUACCAUAGAGAGGUUAACCGCCCACCGAGAUCGGAAGAGCACACGU
B13: target 1 C7A,A9U (mixed)
RNA 1: CACCCGUGCAAAAAUGCAGGGGUCUAAAACUGAGCGGAUAACCUCUCUAUGG
RNA 2: GGGAAUGGAUCCACAUCUACGAAUUCGUACCAUAGAGAGGUUUUACGCUCACCGAGAUCGGAAGAGCACACGU
B14: target 1 G5C,U10G (mixed)
RNA 1: CACCCGUGCAAAAAUGCAGGGGUCUAAAACUGAGCGGAUAACCUCUCUAUGG
RNA 2: GGGAAUGGAUCCACAUCUACGAAUUCGUACCAUAGAGAGGUGAUCCCCUCACCGAGAUCGGAAGAGCACACGU
B15: target 1 insU 3' of 21,insG 3' of 7 (mixed)
RNA 1: CACCCGUGCAAAAAUGCAGGGGUCUAAAACUGAGCGGAUAACCUCUCUAUGG
RNA 2: GGGAAUGGAUCCACAUCUACGAAUUCGUACCUAUAGAGAGGUUAUCGCGCUCACCGAGAUCGGAAGAGCACACGU
B16: target 1 complement block 1-12 (mixed)
RNA 1: CACCCGUGCAAAAAUGCAGGGGUCUAAAACUGAGCGGAUAACCUCUCUAUGG
RNA 2: GGGAAUGGAUCCACAUCUACGAAUUCGUACCAUAGAGAGCAAUAGGCGAGUCCGAGAUCGGAAGAGCACACGU
B17: target 1 C2U,U3C (mixed)
RNA 1: CACCCGUGCAAAAAUGCAGGGGUCUAAAACUGAGCGGAUAACCUCUCUAUGG
RNA 2: GGGAAUGGAUCCACAUCUACGAAUUCGUACCAUAGAGAGGUUAUCCGCCUACCGAGAUCGGAAGAGCACACGU
B18: target 1 insG 3' of 22,insC 3' of 13 (mixed)
RNA 1: CACCCGUGCAAAAAUGCAGGGGUCUAAAACUGAGCGGAUAACCUCUCUAUGG
RNA 2: GGGAAUGGAUCCACAUCUACGAAUUCGUACGCAUAGAGAGCGUUAUCCGCUCACCGAGAUCGGAAGAGCACACGU
B19: target 1 A9G,G15C (mixed)
RNA 1: CACCCGUGCAAAAAUGCAGGGGUCUAAAACUGAGCGGAUAACCUCUCUAUGG
RNA 2: GGGAAUGGAUCCACAUCUACGAAUUCGUACCAUAGACAGGUUGUCCGCUCACCGAGAUCGGAAGAGCACACGU
B20: target 1 insA 3' of 21,insG 3' of 18 (mixed)
RNA 1: CACCCGUGCAAAAAUGCAGGGGUCUAAAACUGAGCGGAUAACCUCUCUAUGG
RNA 2: GGGAAUGGAUCCACAUCUACGAAUUCGUACCAAUAGGAGAGGUUAUCCGCUCACCGAGAUCGGAAGAGCACACGU
B21: target 1 G12A,G17A (mixed)
RNA 1: CACCCGUGCAAAAAUGCAGGGGUCUAAAACUGAGCGGAUAACCUCUCUAUGG
RNA 2: GGGAAUGGAUCCACAUCUACGAAUUCGUACCAUAAAGAGAUUAUCCGCUCACCGAGAUCGGAAGAGCACACGU
B22: target 1 G13A,U19G (mixed)
RNA 1: CACCCGUGCAAAAAUGCAGGGGUCUAAAACUGAGCGGAUAACCUCUCUAUGG
RNA 2: GGGAAUGGAUCCACAUCUACGAAUUCGUACCAGAGAGAAGUUAUCCGCUCACCGAGAUCGGAAGAGCACACGU
B23: target 1 insG 3' of 9,insG 3' of 8 (mixed)
RNA 1: CACCCGUGCAAAAAUGCAGGGGUCUAAAACUGAGCGGAUAACCUCUCUAUGG
RNA 2: GGGAAUGGAUCCACAUCUACGAAUUCGUACCAUAGAGAGGUUAGUGCCGCUCACCGAGAUCGGAAGAGCACACGU
B24: target 1 complement block 2-12 (mixed)
RNA 1: CACCCGUGCAAAAAUGCAGGGGUCUAAAACUGAGCGGAUAACCUCUCUAUGG
RNA 2: GGGAAUGGAUCCACAUCUACGAAUUCGUACCAUAGAGAGCAAUAGGCGAGACCGAGAUCGGAAGAGCACACGU
B25: target 1 insC 3' of 3,insA 3' of 2 (mixed)
RNA 1: CACCCGUGCAAAAAUGCAGGGGUCUAAAACUGAGCGGAUAACCUCUCUAUGG
RNA 2: GGGAAUGGAUCCACAUCUACGAAUUCGUACCAUAGAGAGGUUAUCCGCUCCAACCGAGAUCGGAAGAGCACACGU
B26: target 1 insA 3' of 15,insA 3' of 13 (mixed)
RNA 1: CACCCGUGCAAAAAUGCAGGGGUCUAAAACUGAGCGGAUAACCUCUCUAUGG
RNA 2: GGGAAUGGAUCCACAUCUACGAAUUCGUACCAUAGAGAAGAGUUAUCCGCUCACCGAGAUCGGAAGAGCACACGU
B27: target 1 C6G,U10A (mixed)
RNA 1: CACCCGUGCAAAAAUGCAGGGGUCUAAAACUGAGCGGAUAACCUCUCUAUGG
RNA 2: GGGAAUGGAUCCACAUCUACGAAUUCGUACCAUAGAGAGGUAAUCGGCUCACCGAGAUCGGAAGAGCACACGU

The term Kd denotes the constant that tells how readily two partners part at equilibrium. Low values mean a tighter complex, high ones a looser complex.

This series has as its target T1, EsCas13d, nuclease-dead. Description: crRNA (strand 1, pre-loaded); Mg2+; 40 mM Tris-HCl pH 7.5, 150 mM NaCl, 6 mM MgCl2, 1 mM DTT, 0.1% Tween-20, 0.2 mg/ml BSA; 25 C; 10 min per concentration, then washed. As to conditions: tags: His6-TwinStrep-SUMO cleaved; N-terminal SNAP kept (SNAP-Surface 488); label: 3' end held by stalled T7 RNA polymerase.
In the case of B1, binding was characterised by a dissociation constant (Kd) of 37.5 ± 3.1 nM.

B2: binding was characterised by a dissociation constant (Kd) of 7.49 ± 0.35 nM.

As to B3, the equilibrium dissociation constant (Kd) was found to be 18.5 ± 1.2 nM.

Turning to B4, the dissociation constant (Kd) came out at 63 ± 23 nM.

With B5, the dissociation constant (Kd) was found to be 7.4 ± 0.4 nM.

For the molecule B6, the Kd was determined as 53 ± 4 nM.

The molecule B7 gave a Kd of 19.7 ± 0.8 nM.

Molecule B8 had a Kd of 53 ± 6 nM.

The molecule B9 returned a Kd of 27 ± 4 nM.

In turn, B10 showed a Kd of 25.3 ± 3.1 nM.

In the case of B11, the Kd was ~100 nM.

With B12, the Kd is 18.7 ± 1.5 nM.

Regarding B13, the affinity, expressed as Kd, was 7.5 ± 0.4 nM.

The molecule B14 gave an equilibrium dissociation constant (Kd) of 17.5 ± 0.9 nM.

For the molecule B15, binding was characterised by a dissociation constant (Kd) of 23.6 ± 2 nM.

With B16, the Kd was found to be 19.6 ± 1 nM.

With B17, the Kd was found to be 16.6 ± 1.7 nM.

Molecule B18 yielded a Kd of 44 ± 6 nM.

Molecule B19 showed a Kd of 67 ± 20 nM.

Take B20: the Kd worked out at 77 ± 20 nM.

The molecule B21 had a Kd of 30.8 ± 3.2 nM.

Consider B22, for which the dissociation constant (Kd) turned out to be 80 ± 40 nM.

B23 showed a Kd of 17.2 ± 1.3 nM.

The molecule B24 yielded a Kd of 23.4 ± 1.6 nM.

In the case of B25, the Kd was 13.6 ± 1.2 nM.

Turning to B26, binding was characterised by a dissociation constant (Kd) of 5.63 ± 0.28 nM.

With B27, the Kd is 8.6 ± 0.6 nM.
